{"source": "paper PMC10897196", "about": "“Structure–activity characteristics of phenylalanine analogs selectively transported by L-type amino acid transporter 1 (LAT1)” (Scientific Reports, 2024)", "proteins": {"B1": {"name": "human LAT2 (Homo sapiens) (protein)", "chain": "MEEGARHRNNTEKKHPGGGESDASPEAGSGGGGVALKKEIGLVSACGIIVGNIIGSGIFVSPKGVLENAGSVGLALIVWIVTGFITVVGALCYAELGVTIPKSGGDYSYVKDIFGGLAGFLRLWIAVLVIYPTNQAVIALTFSNYVLQPLFPTCFPPESGLRLLAAICLLLLTWVNCSSVRWATRVQDIFTAGKLLALALIIIMGIVQICKGEYFWLEPKNAFENFQEPDIGLVALAFLQGSFAYGGWNFLNYVTEELVDPYKNLPRAIFISIPLVTFVYVFANVAYVTAMSPQELLASNAVAVTFGEKLLGVMAWIMPISVALSTFGGVNGSLFTSSRLFFAGAREGHLPSVLAMIHVKRCTPIPALLFTCISTLLMLVTSDMYTLINYVGFINYLFYGVTVAGQIVLRWKKPDIPRPIKINLLFPIIYLLFWAFLLVFSLWSEPVVCGIGLAIMLTGVPVYFLGVYWQHKPKCFSDFIELLTLVSQKMCVVVYPEVERGSGTEEANEDMEEQQQPMYQPTPTKDKDVAGQPQP", "notes": "expressed in transfected cells"}}, "experiment_in_all_cases": "Efflux of pre-loaded L-[14C]alanine from HEK293-hLAT2 cells induced by extracellular compounds", "format_in_all_cases": "cell-based, human", "conditions_in_all_cases": "other: LAT2, L-[14C]alanine efflux, 1 min; mean ± S.E.M., n = 3; 37.0 °C", "key": {"[1]": {"substrate": "N[C@@H](Cc1ccccc1I)C(=O)O", "description": "(§1) We evaluated the efflux of pre-loaded L-[^14C]leucine from LAT1 and pre-loaded L-[^14C]alanine from LAT2 induced by extracellularly applied compounds.\n(§2) Efflux experiments were performed as described previously. Cells cultured 48 h were pre-loaded with 5 μM L-[^14C]leucine or L-[^14C]alanine for 10 min at 37 °C. The cells were then washed, and the efflux was induced by incubating cells for 1 min in either the absence or presence of non-radiolabeled test compounds at indicated concentrations. The efflux time of 1 min fell within the linear range of time-dependent substrate efflux mediated by LAT1 and LAT2 (Supplementary Fig. S2). Following incubation, the medium was collected and radioactivity was measured in both the medium and the cells. Efflux was quantified as the percentage of radioactivity released into the medium, calculated using the formula: radioactivity of medium/(radioactivity of medium + radioactivity of cells) × 100%.\n(§3) The kinetic parameters for the efflux of L-[^14C]leucine or L-[^14C]alanine induced by various concentrations of extracellularly-applied test compounds were analyzed. The baseline efflux values—those obtained in the absence of test compounds—were subtracted from the values measured in the presence of the compounds. The resultant data were fitted to Michaelis–Menten kinetics to determine the Km and Vmax by nonlinear regression analysis using “enzyme kinetics-velocity as a function of substrate” module within GraphPad Prism software."}, "[2]": {"substrate": "N[C@]1(C(=O)O)CCc2ccccc2C1", "description": "as §1, §2, §3"}, "[3]": {"substrate": "N[C@@H](Cc1ccccc1)C(=O)O", "description": "as §1, §2, §3"}, "[4]": {"substrate": "C[C@](N)(Cc1ccccc1)C(=O)O", "description": "as §1, §2, §3"}}, "note": "Values joined by “and” are separate entries in the source; they are usually repeats but may differ in a detail not shown here. Equal values may be shown once."}
{"protein": "B1", "values": [{"measurement": "Km", "setting": "[1]", "result": "35.34 ± 1.95", "unit": "µM"}, {"measurement": "Km", "setting": "[2]", "result": "30 µM and 29.96 ± 4.00 µM"}, {"measurement": "Km", "setting": "[3]", "result": "25.21 ± 2.43", "unit": "µM"}, {"measurement": "Km", "setting": "[4]", "result": "246.49 ± 23.00", "unit": "µM"}]}
